# In US20070020717A1 (ARBOR VITA, published 2007):
# What was measured:
# [1] = molecular target: T1, Peptide 1956 (N-terminally biotinylated Tat-COX-2 peptide); experiment: ELISA (modified G assay): GST-PDZ captured by anti-GST antibody, biotinylated peptide, HRP-streptavidin
# T1 construct: also called PL of COX-2
# [2] = molecular target: T1, Peptide 1956 (N-terminally biotinylated …); experiment: ELISA titration of the biotinylated peptide on captured GST-PDZ
Binder,binding result [1],binding result [2]
"GST-PDZ fusion protein, PDZ domain of MAST2 (Accession no. AB047005) (other, also called MAST2 PDZ domain) ISALGSMRPPIIIHRAGKKYGFTLRAIRVYMGDSDVYTVHHMVWHVEDGGPASEAGLRQGDLITHVNGEPVHGLVHTEVVELILKSGNKVAISTTPLENSS",binds,
"GST-PDZ fusion protein, PDZ domain of SHANK1 (GID 7025450) (other, also called SHANK1 PDZ domain) ILKEKTVLLQKKDSEGFGFVLRGAKAQTPIEEFTPTPAFPALQYLESVDEGGVAWRAGLRMGDFLIEVNGQNVVKVGHRQVVNMIRQGGNTLMVKVVMVTRHPDMDEAVQNSS",,binds
"GST-PDZ fusion protein, PDZ domain of SHANK2 (GID 6049185) (other, also called SHANK2 PDZ domain) ILEEKTVVLQKKDNEGFGFVLRGAKADTPIEEFTPTPAFPALQYLESVDEGGVAWQAGLRTGDFLIEVNNENVVKVGHRQVVNMIRQGGNHLVLKVVTVTRNLDPDDNSS",,binds
"GST-PDZ fusion protein, PDZ domain of SHANK3 (XM_037493 GID: 51476100) (other, also called SHANK3 PDZ domain) SDYVIDDKVAVLQKRDHEGFGFVLRGAKAETPIEEFTPTPAFPALQYLESVDVEGVAWRAGLRTGDFLIEVNGVNVVKVGHKQVVALIRQGGNRLVMKVVSVTRKPEEDG",,binds
